Laboratory results as given in publication PMC6241121, “hnRNPA2 mediated acetylation reduces telomere length in response to mitochondrial dysfunction”.

Biological target: hnRNPA2 WT (human, UniProt P22626-2 1-341)
Assay: EMSA; not given in the material
Conditions: protein: recombinant; tags: N-terminal 6xHis (pET28a)

Sequence of hnRNPA2 WT (P22626 other isoform, or with tags, fused parts or gaps): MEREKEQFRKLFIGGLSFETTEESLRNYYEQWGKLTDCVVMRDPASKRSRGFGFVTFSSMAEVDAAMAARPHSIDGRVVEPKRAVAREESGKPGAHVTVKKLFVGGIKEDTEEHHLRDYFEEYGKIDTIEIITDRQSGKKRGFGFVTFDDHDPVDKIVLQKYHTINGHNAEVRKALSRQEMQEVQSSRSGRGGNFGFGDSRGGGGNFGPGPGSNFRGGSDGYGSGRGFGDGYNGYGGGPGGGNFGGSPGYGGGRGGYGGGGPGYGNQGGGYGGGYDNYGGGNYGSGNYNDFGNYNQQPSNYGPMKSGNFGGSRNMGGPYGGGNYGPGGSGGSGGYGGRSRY

TTAGGGTTAGGGTTAGGGTTAGGGTTAGGG (ssDNA) [single-stranded telomeric DNA probe]: binds.
